Results published in patent US20230287125A1 (LEPU BIOPHARMA, published 2023).
Substitutions are numbered along the chain they refer to. One block for each binder: values may come before it.

Tests used:
[1] = target: T1, human PD-L1-his tag protein (human, UniProt Q9NZQ7 19-238); experiment: SPR (Biacore T200), mAb captured on Protein A chip, PD-L1-his injected
T1 construct: also called human PD-L1-His protein; recombinant PD-L1 protein; not shown: his tag
Protocol: The binding of the humanized antibodies to recombinant PD-L1 protein (human PD-L1-his tag) was tested by Biacore using a capture method. […] A serial dilution of human PD-L1-his tag protein was injected over captured antibody for 2 mins at a flow rate of 30 μl/min. The antigen was allowed to dissociate for 1500 s. All the experiment were carried out on a Biacore T200.

human PD-L1-Fc protein [2] = target: T2, human PD-L1-Fc protein (human, UniProt Q9NZQ7 19-238); experiment: ELISA, antibody titrated on coated human PD-L1-Fc, OD 450nm; upper right panel
T2 construct: coating antigen of the ELISAs; also called rhPD-L1-Fc; not shown: Fc

human PD-L1-Fc protein [3] = target: T2, human PD-L1-Fc protein; experiment: receptor blocking ELISA: coated human PD-L1-Fc, blocked ligand biotin-labeled human CD80-Fc (Bio-CD80), OD 450nm; lower right panel
Protocol: (§1) Briefly, microtiter plates were coated with human PD-L1-Fc protein at 0.5 μg/ml in PBS, 100 μl/well at 4° C. overnight, then blocked with 150 μl/well of 1% BSA at 37° C. for 2 hours. […] The plates were washed with PBS/Tween and then incubated with Streptavidin-HRP for 10 mins at 37° C. After washing, the plates were developed with TMB substrate and analyzed by spectrophotometer at OD 450 nm.

[4] = target: T1, human PD-L1-his tag protein; experiment: SPR (Biacore), affinity ranking, PDL1-His
human PD-L1-Fc protein [5] = target: T2, human PD-L1-Fc protein; experiment: receptor blocking ELISA: coated human PD-L1-Fc, blocked ligand biotin-labeled human PD-1-Fc (Bio-PD1), OD 450nm; lower right panel
Protocol: as §1

[6] = target: T3, human PD-L1 over-expressed on CHOK1 cells (human, UniProt Q9NZQ7 19-290); experiment: flow cytometry (MFI) on PDL1-CHOK1 cells; lower right panel
T3 construct: whole, on cells; also called PDL1-CHOK1 cells
Protocol: (§2) To evaluate the antigen binding property, the humanized antibodies were analyzed for their binding to PD-L1 overexpressed on mammalian cells by FACS. Briefly, PDL1-CHOK1 cells were firstly incubated with 3-fold serious diluted humanized antibodies starting at 15 μg/ml at 4° C. for 40 mins. After washed by PBS, the Alexa Fluor® 647 AffiniPure Goat Anti-Human IgG (H+L) antibody was added to each well and incubated at 4° C. for 30 mins. The MFI of Alexa Fluor® 647 was evaluated by FACSCanto.

[7] = target: T3, human PD-L1 over-expressed on CHOK1 …; experiment: flow cytometry (MFI) on PDL1-CHOK1 cells; lower right panel (with the Hu89C10H8 antibodies)
Protocol: as §2

human PD-L1-Fc protein [8] = target: T2, human PD-L1-Fc protein; experiment: receptor blocking ELISA: coated human PD-L1-Fc, blocked ligand biotin-labeled human PD-1-Fc (Bio-PD1), OD 450nm; upper right panel (with Hu89C10H8-7)
Protocol: as §1

human PD-L1-Fc protein [9] = target: T2, human PD-L1-Fc protein; experiment: ELISA, antibody titrated on coated human PD-L1-Fc, OD 450nm; upper right panel (with Hu89C10H8-7 to -12)
Protocol: (§3) To evaluate antigen binding activity, the humanized antibodies were subjected to ELISA test. Briefly, microtiter plates were coated with human PD-L1-Fc protein at 0.5 μg/ml in PBS, 100 μl/well at 4° C. overnight, then blocked with 200 μl/well of 1% BSA. Three-fold dilutions of humanized antibodies starting from 10 μg/ml were added to each well and incubated for 1 hour at 37° C. The plates were washed with PBS/Tween and then incubated with mouse-anti-human IgG Fab antibody conjugated with Horse Radish Peroxidase (HRP) for 1 hour at 37° C. After washing, the plates were developed with TMB substrate and analyzed by spectrophotometer at OD 450 nm.

human PD-L1-Fc protein [10] = target: T2, human PD-L1-Fc protein; experiment: ELISA, antibody titrated on coated human PD-L1-Fc, OD 450nm; upper left panel (with Hu89C10H8-1 to -6)
Protocol: as §3

human PD-L1-Fc protein [11] = target: T2, human PD-L1-Fc protein; experiment: receptor blocking ELISA: coated human PD-L1-Fc, blocked ligand biotin-labeled human CD80-Fc (Bio-CD80), OD 450nm; lower left panel (with Hu89C10H8-11)
Protocol: as §1

human PD-L1-Fc protein [12] = target: T2, human PD-L1-Fc protein; experiment: receptor blocking ELISA: coated human PD-L1-Fc, blocked ligand biotin-labeled human CD80-Fc (Bio-CD80), OD 450nm; lower right panel (with Hu89C10H8-12)
Protocol: as §1

human PD-L1-Fc protein [13] = target: T2, human PD-L1-Fc protein; experiment: receptor blocking ELISA: coated human PD-L1-Fc, blocked ligand biotin-labeled human CD80-Fc (Bio-CD80), OD 450nm; upper left panel (with Hu89C10H8-4)
Protocol: as §1

[14] = target: T3, human PD-L1 over-expressed on CHOK1 …; experiment: flow cytometry on PDL1-CHOK1 cells
Protocol: After washing by PBS, Alexa Fluor® 647 AffiniPure Goat Anti-Human IgG (H+L) was added to each well and incubated at 4° C. for 30 mins. Samples were washed twice with FACS buffer. The mean florescence intensity (MFI) of Alexa Fluor® 647 was evaluated by FACSCanto.

human PD-L1-Fc protein [15] = target: T2, human PD-L1-Fc protein; experiment: receptor blocking ELISA: coated human PD-L1-Fc, blocked ligand biotin-labeled human CD80-Fc (Bio-CD80), OD 450nm; upper right panel (with Hu89C10H8-7)
Protocol: as §1

human PD-L1-Fc protein [16] = target: T2, human PD-L1-Fc protein; experiment: receptor blocking ELISA: coated human PD-L1-Fc, blocked ligand biotin-labeled human PD-1-Fc (Bio-PD1), OD 450nm; lower left panel (with Hu89C10H8-11)
Protocol: as §1

human PD-L1-Fc protein [17] = target: T2, human PD-L1-Fc protein; experiment: competition ELISA, coated human PD-L1-Fc, biotin-labeled human PD-1-Fc as competitor
Protocol: as §1, with “BSA.” for “BSA at 37° C. for 2 hours.”

cynomolgus PD-L1 protein = cynomolgus PD-L1 protein (cynomolgus, UniProt G7PSE7 19-238); experiment: ELISA, coated cynomolgus PD-L1
Protocol: (§4) ELISA testing was carried out to evaluate the binding of chimeric antibodies to human, mouse, rat, and cynomolgus PD-L1, respectively.
(§5) Briefly, microtiter plates were coated with human, mouse, rat and cynomolgus PD-L1 proteins at 0.5 μg/ml in PBS, 100 μl/well at 4° C. overnight, then blocked with 150 μl/well of 1% BSA. Three-fold dilutions of chimeric antibodies starting from 10 μg/ml were added to each well and incubated for 1 hour at 37° C. The plates were washed with PBS/Tween and then incubate with mouse-anti-human IgG Fab antibody conjugated with Horse Radish Peroxidase (HRP) for 30 mins at 37° C. After washing, the plates were developed with TMB substrate and analyzed by spectrophotometer at OD 450 nm.

[18] = target: T1, human PD-L1-his tag protein; experiment: SPR (Biacore T200), mAb captured on Protein A chip, PD-L1-his injected; remark: listed apart in the source
Protocol: A serial dilution of human PD-L1-his tag protein was injected over captured antibody for 2 mins at a flow rate of 30 μl/min. The antigen was allowed to dissociate for 480-1500 s. All the experiment were carried out on a Biacore T200. Data analysis was carried out using Biacore T200 evaluation software.

rat PD-L1 protein = rat PD-L1 protein (rat, UniProt D4AE25 19-239); experiment: ELISA, coated rat PD-L1
Protocol: as §4, §5

human PD-L1-Fc protein [19] = target: T2, human PD-L1-Fc protein; experiment: receptor blocking ELISA: coated human PD-L1-Fc, blocked ligand biotin-labeled human PD-1-Fc (Bio-PD1), OD 450nm; upper left panel (with Hu89C10H8-4)
Protocol: as §1

human PD-L1-Fc protein [20] = target: T2, human PD-L1-Fc protein; experiment: ELISA, antibody titrated on coated human PD-L1-Fc, OD 450nm; lower left panel (with Hu89C10H8-13 to -16)
Protocol: as §3

mouse PD-L1 protein = mouse PD-L1 protein (mouse, UniProt Q9EP73 19-239); experiment: ELISA, coated mouse PD-L1
Protocol: as §4, §5

human PD-L1-Fc protein [21] = target: T2, human PD-L1-Fc protein; experiment: ELISA, coated human PD-L1 (PD-L1-Fc per paragraph 110)
Protocol: as §1, with “1% BSA.” for “1% BSA at 37° C. for 2 hours.”, “with Mouse-anti-human IgG Fab antibody conjugated with Horse Radish Peroxidase (HRP)” for “with Streptavidin-HRP”, “for 30” for “for 10”
as §5

T1 sequence (Q9NZQ7 19-238 limits assumed): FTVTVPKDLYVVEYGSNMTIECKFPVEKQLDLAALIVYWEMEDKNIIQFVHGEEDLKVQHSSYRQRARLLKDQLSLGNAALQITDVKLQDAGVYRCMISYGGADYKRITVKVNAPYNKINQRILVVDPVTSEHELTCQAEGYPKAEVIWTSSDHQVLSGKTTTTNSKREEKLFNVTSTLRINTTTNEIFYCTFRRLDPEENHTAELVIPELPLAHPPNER
T2 sequence (Q9NZQ7 19-238 limits assumed): as above
T3 sequence (Q9NZQ7 19-290): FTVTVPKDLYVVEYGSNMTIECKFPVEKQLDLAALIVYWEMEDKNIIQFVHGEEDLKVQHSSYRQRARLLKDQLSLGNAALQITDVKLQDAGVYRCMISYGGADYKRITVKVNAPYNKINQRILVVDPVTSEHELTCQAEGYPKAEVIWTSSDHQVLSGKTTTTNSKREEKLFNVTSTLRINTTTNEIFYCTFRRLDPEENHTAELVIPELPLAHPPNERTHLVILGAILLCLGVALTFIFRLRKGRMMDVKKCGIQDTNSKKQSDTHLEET
mouse PD-L1 protein, sequence (Q9EP73 19-239 limits assumed): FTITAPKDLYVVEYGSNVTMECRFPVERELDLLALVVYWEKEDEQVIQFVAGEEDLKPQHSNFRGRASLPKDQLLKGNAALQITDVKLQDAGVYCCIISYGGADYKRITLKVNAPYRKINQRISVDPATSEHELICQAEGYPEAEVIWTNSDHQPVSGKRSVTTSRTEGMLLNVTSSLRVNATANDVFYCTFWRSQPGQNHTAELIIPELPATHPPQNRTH
rat PD-L1 protein, sequence (D4AE25 entry or part of it limits assumed): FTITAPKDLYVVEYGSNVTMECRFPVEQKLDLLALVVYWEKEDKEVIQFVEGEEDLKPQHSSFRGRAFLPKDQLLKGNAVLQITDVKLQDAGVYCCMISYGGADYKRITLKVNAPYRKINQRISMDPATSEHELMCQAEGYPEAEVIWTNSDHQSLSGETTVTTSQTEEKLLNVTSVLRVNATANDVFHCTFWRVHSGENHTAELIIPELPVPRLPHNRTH
cynomolgus PD-L1 protein, sequence (G7PSE7 entry or part of it): as the sequence (Q9NZQ7 19-238 limits assumed) above, with A33T, A34S, S62N, R68Q, Q82R, F173L, T185A, T192I, H215L counted along it

Kd [1]: 0.0952 nM | koff [1]: 5.59e-05 s⁻¹ | kon [1]: 587000 M⁻¹ s⁻¹ | EC50 (human PD-L1-Fc protein [2]): 7.03 ng/mL | IC50 (human PD-L1-Fc protein [3]): 0.284 µg/mL | Kd [4]: 0.0968 nM | koff [4]: 7.04e-05 s⁻¹ | kon [4]: 727000 M⁻¹ s⁻¹ | IC50 (human PD-L1-Fc protein [5]): 0.0891 µg/mL | EC50 [6]: 0.131 nM
B1: Hu89C10H8-12 (antibody, V domains shown)
VH: EVQLVESGGGLVKPGGSLRLSCAASGFTFSNYWMTWIRQAPGKGLEWVASITNTGSSTFYPDSVKGRFTISRDNAKSSLYLQMNSLRAEDTAVYYCTRDTTIAPFDYWGQGTMVTVSS
VL: DIQMTQSPSSLSASVGDRVTITCKASQNLNEYLNWYQQKPGKAPKRLIYKTNTLQAGIPSRFSGSGSGIDYTLTISSLQPEDFATYYCSQYNSGNTFGQGTKLEIK
notes: humanized

EC50 [7]: 0.118 nM | IC50 (human PD-L1-Fc protein [8]): 0.126 µg/mL | EC50 (human PD-L1-Fc protein [9]): 0.0157 µg/mL | EC50 (human PD-L1-Fc protein [10]): 0.012 µg/mL | IC50 (human PD-L1-Fc protein [11]): 0.434 µg/mL | IC50 (human PD-L1-Fc protein [12]): 0.382 µg/mL | IC50 (human PD-L1-Fc protein [13]): 0.432 µg/mL | EC50 [14]: 0.17 nM | IC50 (human PD-L1-Fc protein [15]): 0.438 µg/mL | IC50 (human PD-L1-Fc protein [16]): 0.133 µg/mL | IC50 (human PD-L1-Fc protein [17]): 0.13 µg/mL | EC50 (cynomolgus PD-L1 protein): 6.77 ng/mL | Kd [18]: 0.0415 nM | koff [18]: 6.64e-05 s⁻¹ | kon [18]: 1.6e+06 M⁻¹ s⁻¹ | IC50 (human PD-L1-Fc protein [19]): 0.12 µg/mL | EC50 (human PD-L1-Fc protein [20]): 0.0126 µg/mL | EC50 (human PD-L1-Fc protein [21]): 8.11 ng/mL
B2: 89C10H8 chimeric mAb (antibody, V domains shown)
VH: EVQLVESGGGLVQPGRSLTLSCVASGFTFSNYWMTWIRQAPGKGLEWVASITNTGSSTFYPDSVKGRFTISRDNTRSTLFLQINSLRSEDTATYYCTRDTTIAPFDYWGQGVMVTVSS
VL: B1 VL with S10F, P40L, K42E, F83V, Y87F, Q99A, I105L
notes: chimeric mAb of the hybridoma clone; also called 89C10H8-chimera
binding result (rat PD-L1 protein): no binding (tested: dilutions starting from 10 µg/ml) | binding result (mouse PD-L1 protein): no binding (tested: dilutions starting from 10 µg/ml)
